For orientation: Kd means the equilibrium constant for the complex coming apart. Lower therefore signals tighter binding.

These results are taken from patent publication US20220389118A1 (Chugai, published 2022).

Residue numbers refer to the chain shown, from its start.

Experiment [1] has as its target T1, human FcγRIa extracellular domain with C-terminal His tag (human, UniProt P12314 16-292).
T1 construct: extracellular domain
Nature of the experiment: SPR (Biacore). (In SPR one partner is held on a chip, and binding of the other changes the refractive index at the surface.)

The target of experiment [2] is T2, human FcγRIIa type R extracellular domain with C-terminal His tag (human, UniProt P12318 34-217).
T2 construct: extracellular domain; also called FcγRIIaR; FcγRIIa(R)
T2 sequence (looked up): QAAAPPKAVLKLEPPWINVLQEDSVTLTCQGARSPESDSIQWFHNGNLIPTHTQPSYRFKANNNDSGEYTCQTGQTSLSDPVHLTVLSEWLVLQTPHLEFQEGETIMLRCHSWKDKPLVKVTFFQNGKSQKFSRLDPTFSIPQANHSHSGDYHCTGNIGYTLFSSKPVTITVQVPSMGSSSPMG
The experiment is described as follows: SPR (Biacore).

The target of experiment [3] is T3, human FcγRIIb extracellular domain with C-terminal His tag (human, UniProt P31994 43-217).
T3 construct: extracellular domain
T3 sequence (looked up): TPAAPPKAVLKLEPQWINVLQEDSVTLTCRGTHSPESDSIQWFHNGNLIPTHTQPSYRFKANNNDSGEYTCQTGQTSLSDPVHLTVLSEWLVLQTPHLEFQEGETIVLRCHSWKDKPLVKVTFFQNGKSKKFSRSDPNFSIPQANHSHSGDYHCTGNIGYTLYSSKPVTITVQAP
Nature of the experiment: SPR (Biacore).

The target of experiment [4] is T3, human FcγRIIb extracellular domain with …. Nature of the experiment: SPR (Biacore), ratio of KDs.
Experiment [5] concerns the target T2, human FcγRIIa type R extracellular …. The experiment is described as follows: SPR (Biacore), parent IL6R-B3/IL6R-L.
In experiment [6] the target is T3, human FcγRIIb extracellular domain with …. Nature of the experiment: SPR (Biacore), parent IL6R-B3/IL6R-L.

T1 sequence (P12314 16-292): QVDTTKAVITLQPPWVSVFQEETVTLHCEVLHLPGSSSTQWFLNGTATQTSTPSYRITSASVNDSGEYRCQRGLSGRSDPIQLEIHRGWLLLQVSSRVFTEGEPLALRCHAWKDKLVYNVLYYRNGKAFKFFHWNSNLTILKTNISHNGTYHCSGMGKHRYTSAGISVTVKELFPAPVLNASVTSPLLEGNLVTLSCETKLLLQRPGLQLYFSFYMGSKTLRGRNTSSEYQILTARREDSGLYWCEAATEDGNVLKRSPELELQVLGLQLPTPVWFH

B1: IL6R-BP445/IL6R-L (antibody, human IgG1, kappa)
heavy: QVQLQESGPGLVKPSETLSLTCAVSGHSISHDHAWSWVRQPPGEGLEWIGFISYSGITNYNPSLQGRVTISRDNSKNTLYLQMNSLRAEDTAVYYCARSLARTTAMDYWGEGTLVTVSSASTKGPSVFPLAPSSKSTSGGTAALGCLVKDYFPEPVTVSWNSGALTSGVHTFPAVLQSSGLYSLSSVVTVPSSSLGTQTYICNVNHKPSNTKVDKKVEPKSCDKTHTCPPCPAPDLLGDDSVFLFPPKPKDTLMISRTPEVTCVVIDVAEEDGEVKFNWYVDGVEVHNAKTKPREEQYNSTYRVVSVLTVLHQDWLNGKEYKCKVSNKALPRPIEKTISKAKGQPREPQVYTLPPSRDELTKNQVSLTCLVKGFYPSDIAVEWESNGQPENNYKTTPPVLDSDGSFFLYSKLTVDKSRWQQGNVFSCSVMHEALHNHYTQESLSLSP
light: not shown
notes: copies: 2 + 2
With B1, the Kd in experiment [1] amounted to 2 nM; in experiment [2], 80 nM; in experiment [3], 2.6 nM.

B2: IL6R-BP501/IL6R-L (antibody, human IgG1, kappa)
heavy: B1 heavy with D235E, R332A
light: not shown
notes: copies: 2 + 2
As to B2, the Kd stood at 2.1 nM in experiment [1] and 25 nM in experiment [3].

B3: IL6R-BP481/IL6R-L (antibody, human IgG1, kappa)
heavy: B1 heavy with R332A
light: not shown
notes: copies: 2 + 2
For the molecule B3, the dissociation constant Kd in experiment [1] worked out at 1 nM; in experiment [2], 400 nM; in experiment [3] it was 19 nM. In experiment [4], the “KD(IIaH)/KD(IIb)” value stood at 350. For the same molecule, the “KD(IIaR)/KD(IIb)” value in experiment [4] was 20.5. The “KD(IIaR) parent/KD(IIaR) altered polypeptide” value in experiment [5] was 2.8. In experiment [6], the “KD(IIb) parent/KD(IIb) altered polypeptide” value was 160.

B4: IL6R-BP426/IL6R-L (antibody, human IgG1, kappa)
heavy: B1 heavy with I266V, E271D
light: not shown
notes: copies: 2 + 2
On to B4, for which the dissociation constant Kd in experiment [1] came to 1 nM.

B5: IL6R-BP506/IL6R-L (antibody, human IgG1, kappa)
heavy: B1 heavy with E274P, Y298D
light: not shown
notes: copies: 2 + 2
On to B5, for which the results for the Kd in experiment [1], in experiment [2] and in experiment [3] were 3.1 nM, 120 nM and 3.4 nM, respectively.

B6: IL6R-BP268/IL6R-L (antibody, human IgG1, kappa)
heavy: B1 heavy with I266V, A269S, Y298D, R332A
light: not shown
notes: copies: 2 + 2
Turning to B6, the figures for the equilibrium dissociation constant (Kd) in experiment [1] and in experiment [3] were 4.5 nM and 92 nM, respectively.

B7: IL6R-BP264/IL6R-L (antibody, human IgG1, kappa)
heavy: B1 heavy with I266V, A269S, Y298D
light: not shown
notes: copies: 2 + 2
For the molecule B7, the results for the Kd in experiment [1] and in experiment [2] were 7.4 nM and 350 nM, respectively.

B8: IL6R-BP537/IL6R-L (antibody, human IgG1, kappa)
heavy: B1 heavy with D235E, A269G
light: not shown
notes: copies: 2 + 2
On to B8, for which the Kd came out at 29 nM in experiment [1], 270 nM in experiment [2] and 6.9 nM in experiment [3].

B9: IL6R-BP532/IL6R-L (antibody, human IgG1, kappa)
heavy: B1 heavy with A269S, Y298D, P398M
light: not shown
notes: copies: 2 + 2
On to B9, for which the Kd in experiment [1] is 12 nM; in experiment [2], 94 nM; in experiment [3], 3.2 nM.

B10: IL6R-BP483/IL6R-L (antibody, human IgG1, kappa)
heavy: B1 heavy with I266V, V268L, R332A
light: not shown
notes: copies: 2 + 2
On to B10, for which the figures for the Kd in experiment [1], in experiment [2] and in experiment [3] were 1.3 nM, 1300 nM and 78 nM, respectively. In addition, the “KD(IIaH)/KD(IIb)” value in experiment [4] is 231. Also, the “KD(IIaR)/KD(IIb)” value in experiment [4] was 16.8. In experiment [5], the “KD(IIaR) parent/KD(IIaR) altered polypeptide” value was 0.8. Besides, the “KD(IIb) parent/KD(IIb) altered polypeptide” value in experiment [6] was determined as 39.7.

B11: IL6R-BP490/IL6R-L (antibody, human IgG1, kappa)
heavy: B1 heavy with D235E
light: not shown
notes: copies: 2 + 2
As to B11, the figures for the Kd in experiment [1], in experiment [2] and in experiment [3] were 4.5 nM, 110 nM and 2.4 nM, respectively.

B12: IL6R-BP435/IL6R-L (antibody, human IgG1, kappa)
heavy: B1 heavy with I266V, A269S, E270D, Y298D, K328A, I334T
light: not shown
notes: copies: 2 + 2
In turn, B12 yielded a Kd in experiment [1] of 1 nM.

B13: IL6R-BP507/IL6R-L (antibody, human IgG1, kappa)
heavy: B1 heavy with E274P
light: not shown
notes: copies: 2 + 2
As for B13, the equilibrium dissociation constant (Kd) stood at 2.6 nM in experiment [1], 100 nM in experiment [2] and 2.9 nM in experiment [3].

B14: IL6R-BP479/IL6R-L (antibody, human IgG1, kappa)
heavy: B1 heavy with V268L, R332A
light: not shown
notes: copies: 2 + 2
For B14, the Kd in experiment [1] was 5.3 nM; in experiment [2], 900 nM; in experiment [3], 56 nM. The “KD(IIaH)/KD(IIb)” value in experiment [4] was found to be 268. Besides, in experiment [4], the “KD(IIaR)/KD(IIb)” value stood at 16.1. In experiment [5], the “KD(IIaR) parent/KD(IIaR) altered polypeptide” value came to 1.2. The “KD(IIb) parent/KD(IIb) altered polypeptide” value in experiment [6] came to 55.5.

B15: IL6R-BP480/IL6R-L (antibody, human IgG1, kappa)
heavy: B1 heavy with I266V, V268L, A269S, E271D, R332A
light: not shown
notes: copies: 2 + 2
As to B15, the Kd in experiment [2] was 6300 nM; in experiment [3], 200 nM.

B16: IL6R-BP535/IL6R-L (antibody, human IgG1, kappa)
heavy: B1 heavy with A269G, Y298D, A329G, P398M
light: not shown
notes: copies: 2 + 2
On to B16, for which the dissociation constant (Kd) amounted to 11 nM in experiment [1], 92 nM in experiment [2] and 4 nM in experiment [3].

B17: IL6R-BP555/IL6R-L (antibody, human IgG1, kappa)
heavy: B1 heavy with D235E, E274D, Y298D
light: not shown
notes: copies: 2 + 2
Turning to B17, the results for the Kd in experiment [1], in experiment [2] and in experiment [3] were 9.4 nM, 160 nM and 4.1 nM, respectively.

B18: IL6R-BP531/IL6R-L (antibody, human IgG1, kappa)
heavy: B1 heavy with A269G, Y298D, P398M
light: not shown
notes: copies: 2 + 2
Regarding B18, the results for the Kd in experiment [1], in experiment [2] and in experiment [3] were 9.4 nM, 120 nM and 3.8 nM, respectively.

B19: IL6R-BP553/IL6R-L (antibody, human IgG1, kappa)
heavy: B1 heavy with E274D
light: not shown
notes: copies: 2 + 2
As for B19, the results for the dissociation constant Kd in experiment [1], in experiment [2] and in experiment [3] were 3.4 nM, 86 nM and 3.1 nM, respectively.

B20: IL6R-BP269/IL6R-L (antibody, human IgG1, kappa)
heavy: B1 heavy with D235E, I266V, A269S, Y298D, R332A
light: not shown
notes: copies: 2 + 2
As to B20, the Kd in experiment [1] came out at 14 nM; in experiment [2], 2200 nM; in experiment [3], 110 nM. In experiment [4], the “KD(IIaH)/KD(IIb)” value was 637. For the same molecule, the “KD(IIaR)/KD(IIb)” value in experiment [4] came to 19.6. The “KD(IIaR) parent/KD(IIaR) altered polypeptide” value in experiment [5] turned out to be 0.5. Besides, the “KD(IIb) parent/KD(IIb) altered polypeptide” value in experiment [6] worked out at 27.4.

B21: IL6R-BP495/IL6R-L (antibody, human IgG1, kappa)
heavy: B1 heavy with D235E, I266V, A269G, Y298D
light: not shown
notes: copies: 2 + 2
With B21, the values for the dissociation constant (Kd) in experiment [1] and in experiment [3] were 8.3 nM and 9.7 nM, respectively.

B22: IL6R-BP552/IL6R-L (antibody, human IgG1, kappa)
heavy: B1 heavy with E274D, Y298D
light: not shown
notes: copies: 2 + 2
As for B22, the Kd turned out to be 3.2 nM in experiment [1], 97 nM in experiment [2] and 2.6 nM in experiment [3].

B23: IL6R-BP262/IL6R-L (antibody, human IgG1, kappa)
heavy: B1 heavy with D235E, I266V, A269S, R332A
light: not shown
notes: copies: 2 + 2
Regarding B23, the figures for the Kd in experiment [1], in experiment [2] and in experiment [3] were 10 nM, 2000 nM and 120 nM, respectively. Also, in experiment [4], the “KD(IIaH)/KD(IIb)” value stood at 375. In addition, in experiment [4], the “KD(IIaR)/KD(IIb)” value was found to be 17. For the same molecule, in experiment [5], the “KD(IIaR) parent/KD(IIaR) altered polypeptide” value amounted to 0.5. Besides, the “KD(IIb) parent/KD(IIb) altered polypeptide” value in experiment [6] is 25.8.

B24: IL6R-BP534/IL6R-L (antibody, human IgG1, kappa)
heavy: B1 heavy with A269S, Y298D, P398L
light: not shown
notes: copies: 2 + 2
Take B24: the Kd in experiment [1] amounted to 9.3 nM; in experiment [2], 91 nM; in experiment [3], 3 nM.
